{
  "source": "patent US20120316071A1",
  "about": "(published 2012)",
  "binders": {"B1": {"name": "Fab VH1-46_IGHD6-6*01_IGHJ1*01 & L6_IGKJ1*01 (Fab, V domains shown)", "VH": "QVQLVQSGAEVKKPGASVKVSCKASGYTFTSYYMHWVRQAPGQGLEWMGIINPSGGSTSYAQKFQGRVTMTRDTSTSTVYMELSSLRSEDTAVYYCAREEYSSSSAEYFQHWGQGTLVTVSS", "VL": "not shown", "notes": "Only variable domains are tied to the molecule; Tested as a Fab made in E. coli: heavy chain from Plasmid A (CH1 constant region, His6 and Flag tags), kappa light chain from Plasmid C (kappa CL); also called parent Hit Fab against DLL4; VH1-46_IGHD6-6*01_IGHJ1*01 & L6_IGKJ1*01 (parental)"}, "B2": {"name": "Fab VH1-46_IGHD6-6*01_IGHJ1*01 S102A/S103P/S104F (APF) & L6_IGKJ1*01 (Fab, V domains shown)", "VH": "QVQLVQSGAEVKKPGASVKVSCKASGYTFTSYYMHWVRQAPGQGLEWMGIINPSGGSTSYAQKFQGRVTMTRDTSTSTVYMELSSLRSEDTAVYYCAREEYAPFSAEYFQHWGQGTLVTVSS", "VL": "not shown", "notes": "Tested as a Fab made in E. coli: VH cloned in Plasmid A (CH1 constant region, His6 and Flag tags), VL in Plasmid C (kappa constant region); also called H:APF & L:wt; APF triple mutant"}, "B3": {"name": "Fab VH4-34_IGHD7-27*01_IGHJ4*01 & L5_IGKJ1*01 (Fab, V domains shown)", "VH": "QVQLQQWGAGLLKPSETLSLTCAVYGGSFSGYYWSWIRQPPGKGLEWIGEINHSGSTNYNPSLKSRVTISVDTSKNQFSLKLSSVTAADTAVYYCARANWGDYFDYWGQGTLVTVSS", "VL": "DIQMTQSPSSVSASVGDRVTITCRASQGISSWLAWYQQKPGKAPKLLIYAASSLQSGVPSRFSGSGSGTDFTLTISSLQPEDFATYYCQQANSFPPWTFGQGTKVEIKR", "notes": "Germline library Fab expressed in E. coli; VH was cloned into Plasmid A, which adds CH1 with His6 and Flag tags"}},
  "key": {"[1]": {"molecular_target": "T1, rHuman HGF R/c-MET/Fc Chimera, CF (R&D Systems Cat#358-MT/CF) (human, UniProt P08581 25-932)", "T1 construct": "Bought reagent; also called HGF R/Fc; hepatocyte growth factor receptor", "test": "MSD multispot ECL, antigen spotted, Fab 0.6 nM; blank spot 226"}, "[2]": {"molecular_target": "T2, rHuman CD44/Fc Chimera, CF (R&D Systems Cat#3660-CD) (human, UniProt P16070 21-220)", "T2 construct": "Bought reagent", "test": "MSD multispot ECL, antigen spotted, Fab 0.6 nM; blank spot 226"}, "[3]": {"molecular_target": "T3, rHuman IGF-1 sR, (IGF-1 sR), CF (R&D Systems Cat#391-GR) (human, UniProt P08069 31-932)", "T3 construct": "Bought soluble receptor; also called insulin-like growth factor-1 soluble receptor", "test": "MSD multispot ECL, antigen spotted, Fab 0.6 nM; blank spot 226"}, "[4]": {"molecular_target": "T4, rHuman ErbB2/Fc Chimera, CF (R&D Systems Cat#1129-ER) (human, UniProt P04626 23-652)", "T4 construct": "Bought reagent; also called human epidermal growth factor 2 receptor", "test": "MSD multispot ECL, antigen spotted, Fab 0.6 nM; blank spot 226"}, "[5]": {"molecular_target": "T5, rHuman Notch-1/Fc Chimera, CF (R&D Systems Cat#3647-TK) (human, UniProt P46531 19-526)", "T5 construct": "Bought reagent", "test": "MSD multispot ECL, antigen spotted, Fab 0.6 nM; blank spot 226"}, "[6]": {"molecular_target": "T6, rHuman EGF R/Fc Chimera, CF (R&D Systems Cat#344-ER) (human, UniProt P00533 25-645)", "T6 construct": "Bought reagent; also called epidermal growth factor receptor", "test": "MSD multispot ECL, antigen spotted, Fab 0.6 nM; blank spot 226"}, "[7]": {"molecular_target": "T7, Recombinant Human DLL4 (R&D Systems Cat#1506-D4/CF) (human, UniProt Q9NR61 27-524)", "T7 construct": "Bought recombinant protein; also called rHuman DLL4; delta-like protein 4", "test": "MSD multispot ECL, antigen spotted, Fab 0.6 nM; blank spot 226"}, "[8]": {"molecular_target": "T8, rHuman Erythropoietin R/Fc Chimera, CF (R&D Systems Cat#963-ER) (human, UniProt P19235 25-250)", "T8 construct": "Bought reagent; also called EPO R/Fc; Epo R", "T8 sequence (looked up)": "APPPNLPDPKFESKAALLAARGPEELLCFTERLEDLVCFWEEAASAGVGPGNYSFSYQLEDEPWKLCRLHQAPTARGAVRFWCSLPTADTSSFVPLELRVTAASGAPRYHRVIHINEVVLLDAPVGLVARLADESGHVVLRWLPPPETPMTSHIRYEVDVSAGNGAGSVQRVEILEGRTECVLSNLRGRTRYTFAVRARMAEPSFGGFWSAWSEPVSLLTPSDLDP", "test": "MSD multispot ECL, antigen spotted, Fab 0.6 nM; blank spot 226"}, "[9]": {"molecular_target": "T9, rHuman HGF R/c-MET/Fc Chimera, CF (R&D Systems Cat#358-MT/CF) (human, UniProt P08581 25-932)", "T9 construct": "Bought recombinant protein; also called HGF R/Fc; Fc part of the bought chimera not given", "test": "ECL Multispot (MSD), antigen spotted; Fab 0.50 (µM); blank 142"}, "[10]": {"molecular_target": "T10, Recombinant Human DLL4 (R&D Systems Cat#1506-D4/CF) (human, UniProt Q9NR61 27-529)", "T10 construct": "Bought recombinant protein; also called delta-like protein 4; rHuman DLL4", "test": "ECL Multispot (MSD), antigen spotted; Fab 0.50 (µM); blank 142"}, "[11]": {"molecular_target": "T11, rHuman ErbB2/Fc Chimera, CF (R&D Systems Cat#1129-ER) (human, UniProt P04626 23-652)", "T11 construct": "Bought recombinant protein; Fc part of the bought chimera not given", "test": "ECL Multispot (MSD), antigen spotted; Fab 0.50 (µM); blank 142"}, "[12]": {"molecular_target": "T12, rHuman CD44/Fc Chimera, CF (R&D Systems Cat#3660-CD) (human, UniProt P16070 21-220)", "T12 construct": "Bought recombinant protein; Fc part of the bought chimera not given", "test": "ECL Multispot (MSD), antigen spotted; Fab 0.50 (µM); blank 142"}, "[13]": {"molecular_target": "T13, rHuman Notch-1/Fc Chimera, CF (R&D Systems Cat#3647-TK) (human, UniProt P46531 19-526)", "T13 construct": "Bought recombinant protein; Fc part of the bought chimera not given", "test": "MSD multispot ECL, antigen spotted on plate; Fab 0.03188 uM; blank spot 536"}, "[14]": {"molecular_target": "T14, rHuman ErbB2/Fc Chimera, CF (R&D Systems Cat#1129-ER) (human, UniProt P04626 23-652)", "T14 construct": "Bought recombinant protein; also called human epidermal growth factor 2 receptor; Fc part of the bought chimera not given", "test": "MSD multispot ECL, antigen spotted on plate; Fab 0.03188 uM; blank spot 536"}, "[15]": {"molecular_target": "T15, rHuman Erythropoietin R/Fc Chimera, CF (R&D Systems Cat#963-ER) (human, UniProt P19235 25-250)", "T15 construct": "Bought recombinant protein; also called EPO R/Fc; Epo R; Fc part of the bought chimera not given", "T15 sequence (looked up)": "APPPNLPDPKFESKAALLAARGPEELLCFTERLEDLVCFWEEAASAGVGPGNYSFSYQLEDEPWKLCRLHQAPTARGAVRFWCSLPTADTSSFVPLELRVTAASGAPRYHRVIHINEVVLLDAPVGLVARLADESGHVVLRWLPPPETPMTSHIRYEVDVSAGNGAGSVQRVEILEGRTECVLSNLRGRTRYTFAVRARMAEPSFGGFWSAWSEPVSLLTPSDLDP", "test": "MSD multispot ECL, antigen spotted on plate; Fab 0.03188 uM; blank spot 536"}, "[16]": {"molecular_target": "T16, Recombinant Human DLL4 (R&D Systems Cat#1506-D4/CF) (human, UniProt Q9NR61 27-524)", "T16 construct": "Bought recombinant protein; also called delta-like protein 4; rHuman DLL4", "test": "MSD multispot ECL, antigen spotted on plate; Fab 0.03188 uM; blank spot 536"}, "[17]": {"molecular_target": "T17, rHuman HGF R/c-MET/Fc Chimera, CF (R&D Systems Cat#358-MT/CF) (human, UniProt P08581 25-932)", "T17 construct": "Bought recombinant protein; also called HGF R/Fc; hepatocyte growth factor receptor; Fc part of the bought chimera not given", "test": "MSD multispot ECL, antigen spotted on plate; Fab 0.03188 uM; blank spot 536"}, "[18]": {"molecular_target": "T18, rHuman P-Cadherin/Fc Chimera, CF (R&D Systems Cat#861-PC) (human, UniProt P22223 108-654)", "T18 construct": "Bought recombinant protein; Fc part of the bought chimera not given", "test": "MSD multispot ECL, antigen spotted on plate; Fab 0.03188 uM; blank spot 536"}, "[19]": {"molecular_target": "T19, rHuman IGF-1 sR, CF (R&D Systems Cat#391-GR) (human, UniProt P08069 31-932)", "T19 construct": "Bought recombinant soluble receptor; also called insulin-like growth factor-1 soluble receptor", "test": "MSD multispot ECL, antigen spotted on plate; Fab 0.03188 uM; blank spot 536"}},
  "data": [
    {"binder": "B1", "values": [
      {"measurement": "ECL signal", "setting": "[1]", "result": 256, "unit": "ECL signal"},
      {"measurement": "ECL signal", "setting": "[2]", "result": 238, "unit": "ECL signal"},
      {"measurement": "ECL signal", "setting": "[3]", "result": 313, "unit": "ECL signal"},
      {"measurement": "ECL signal", "setting": "[4]", "result": 215, "unit": "ECL signal"},
      {"measurement": "ECL signal", "setting": "[5]", "result": 337, "unit": "ECL signal"},
      {"measurement": "ECL signal", "setting": "[6]", "result": 309, "unit": "ECL signal"},
      {"measurement": "ECL signal", "setting": "[7]", "result": 508, "unit": "ECL signal"},
      {"measurement": "ECL signal", "setting": "[8]", "result": 337, "unit": "ECL signal"}
    ]},
    {"binder": "B2", "values": [
      {"measurement": "ECL signal", "setting": "[9]", "result": 182},
      {"measurement": "ECL signal", "setting": "[10]", "result": 6670},
      {"measurement": "ECL signal", "setting": "[11]", "result": 199},
      {"measurement": "ECL signal", "setting": "[12]", "result": 207}
    ]},
    {"binder": "B3", "values": [
      {"measurement": "ECL signal", "setting": "[13]", "result": 849},
      {"measurement": "ECL signal", "setting": "[14]", "result": 584},
      {"measurement": "ECL signal", "setting": "[15]", "result": 789},
      {"measurement": "ECL signal", "setting": "[16]", "result": 1280},
      {"measurement": "ECL signal", "setting": "[17]", "result": 693},
      {"measurement": "ECL signal", "setting": "[18]", "result": 775},
      {"measurement": "ECL signal", "setting": "[19]", "result": 765}
    ]}
  ]
}
